According to patent publication US20080286819A1:

What was measured:
[1] = target: Human soluble FcγRIIB (human) (UniProt P31994); test: SPR, soluble human Fc-receptor
[2] = target: Human soluble FcγRIIIA^158F (human) (UniProt P08637); test: SPR, soluble human Fc-receptor
[3] = target: Human soluble FcγRIIA^131H (human) (UniProt P12318); test: SPR, soluble human Fc-receptor
[4] = target: Human soluble FcγRIIA^131H (human) (UniProt P12318); test: ratio of SPR affinities; reference human FcγRIIB
[5] = target: Human soluble FcγRIIIA^158F (human) (UniProt P08637); test: ratio of SPR affinities; reference human FcγRIIB
[6] = target: Human soluble FcγRIIA^131H (human) (UniProt P12318); test: SPR (Biacore), antibody immobilized, soluble FcγR injected
[7] = target: Human soluble FcγRIIA^131R (human) (UniProt P12318); test: as above
[8] = target: Human soluble FcγRIIIA^158F (human) (UniProt P08637); test: as above
[9] = target: Mouse soluble FcγRI (mouse) (UniProt P26151); test: as above
[10] = target: Mouse soluble FcγRIIB (mouse) (UniProt P08101); test: as above
[11] = target: Mouse soluble FcγRIII (mouse) (UniProt P08508); test: as above
[12] = target: Mouse soluble FcγRIV (mouse); test: as above
[13] = target: Human soluble FcγRIIIA^158F (human) (UniProt P08637); test: SPR (Biacore), antibody immobilized; + = detectable but very low binding
[14] = target: Mouse soluble FcγRIIB (mouse) (UniProt P08101); test: as above
[15] = target: Mouse soluble FcγRIII (mouse) (UniProt P08508); test: as above
[16] = target: Human soluble FcγRIIB (human) (UniProt P31994); test: SPR (Biacore), antibody immobilized, soluble FcγR injected
[17] = target: Mouse soluble FcγRIV (mouse); test: SPR (Biacore), antibody immobilized; + = detectable but very low binding
[18] = target: Human soluble FcγRIIB (human) (UniProt P31994); test: SPR; reference human FcγRIIIA and FcγRIIA
[19] = target: Human soluble FcγRIIA^131H (human) (UniProt P12318); test: SPR (Biacore), antibody immobilized; + = detectable but very low binding
[20] = target: Human soluble FcγRIIA^131R (human) (UniProt P12318); test: as above
[21] = target: Mouse soluble FcγRIIB (mouse) (UniProt P08101); test: SPR; reference mouse FcγRIII
[22] = target: Mouse soluble FcγRIII (mouse) (UniProt P08508); test: ratio of SPR affinities; reference mouse FcγRIIB
[23] = target: Mouse soluble FcγRIV (mouse); test: SPR; reference mouse FcγRIIB
[24] = target: Mouse soluble FcγRIV (mouse); test: ratio of SPR affinities; reference mouse FcγRIIB

Sequence of UniProt P08508 (P08508 31-215): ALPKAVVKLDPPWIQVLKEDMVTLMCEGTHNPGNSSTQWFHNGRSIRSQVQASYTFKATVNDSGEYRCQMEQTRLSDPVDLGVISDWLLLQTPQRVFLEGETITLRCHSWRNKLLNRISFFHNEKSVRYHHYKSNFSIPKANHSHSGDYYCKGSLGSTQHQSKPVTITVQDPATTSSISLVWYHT
Sequence of UniProt P08637 (P08637 17-208): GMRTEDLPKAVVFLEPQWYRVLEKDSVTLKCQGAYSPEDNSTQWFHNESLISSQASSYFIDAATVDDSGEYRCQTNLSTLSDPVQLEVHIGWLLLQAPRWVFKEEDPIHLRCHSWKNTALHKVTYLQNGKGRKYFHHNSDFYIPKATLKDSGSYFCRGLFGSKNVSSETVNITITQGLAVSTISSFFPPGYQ
Sequence of UniProt P08101 (P08101 30-210): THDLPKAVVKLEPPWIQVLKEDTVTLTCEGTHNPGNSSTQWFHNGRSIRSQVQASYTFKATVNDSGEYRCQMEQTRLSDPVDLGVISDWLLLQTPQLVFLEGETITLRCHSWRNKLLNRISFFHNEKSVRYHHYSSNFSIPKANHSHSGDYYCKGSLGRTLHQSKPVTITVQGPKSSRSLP
Sequence of UniProt P31994 (P31994 43-217): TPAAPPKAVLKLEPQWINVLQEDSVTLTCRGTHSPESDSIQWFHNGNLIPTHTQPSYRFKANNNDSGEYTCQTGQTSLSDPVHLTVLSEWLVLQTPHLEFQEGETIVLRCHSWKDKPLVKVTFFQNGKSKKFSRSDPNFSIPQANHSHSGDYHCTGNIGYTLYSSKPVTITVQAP
Sequence of UniProt P26151 (P26151 25-297): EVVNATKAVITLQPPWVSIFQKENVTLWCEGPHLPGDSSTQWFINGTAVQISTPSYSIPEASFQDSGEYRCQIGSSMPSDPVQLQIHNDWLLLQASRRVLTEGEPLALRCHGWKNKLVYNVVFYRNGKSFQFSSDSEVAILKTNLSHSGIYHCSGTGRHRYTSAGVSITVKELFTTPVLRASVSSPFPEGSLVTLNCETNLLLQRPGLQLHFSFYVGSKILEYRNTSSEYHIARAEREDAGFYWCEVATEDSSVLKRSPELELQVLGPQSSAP

Substance: FITC-IgG1-Fucose (human IgG1 Fc-switch variant of the 4-4-20 antibody lacking fucose)
- Ka [1]: 78100 M⁻¹
- Kd [1]: 12.8 µM
- Ka [2]: 5.97e+06 M⁻¹
- Kd [2]: 0.168 µM

Substance: FITC-IgG2-Fucose (human IgG2 Fc-switch variant of the 4-4-20 antibody lacking fucose)
- Ka [3]: 135000 M⁻¹
- Kd [3]: 7.4 µM
- Ka [1]: 25400 M⁻¹
- Kd [1]: 39.4 µM
- Ka [2]: 144000 M⁻¹
- Kd [2]: 6.93 µM
- A/I ratio IIA/IIB (KA for FcγRIIA over KA for FcγRIIB) [4]: 5.31
- A/I ratio IIIA/IIB (KA for FcγRIIIA over KA for FcγRIIB) [5]: 5.67

Substance: hIgG1 (FITC-isotype switch variant, human Fc-switch variant of the 4-4-20 antibody)
- Ka [6]: 380000 M⁻¹
- Ka [7]: 270000 M⁻¹
- Ka [8]: 430000 M⁻¹
- Ka [9]: 3.8e+06 M⁻¹
- Ka [10]: 200000 M⁻¹
- Ka [11]: 35000 M⁻¹
- Ka [12]: 2.2e+06 M⁻¹

Substance: hIgG2 (FITC-isotype switch variant, human Fc-switch variant of the 4-4-20 antibody)
- Ka [6]: 120000 M⁻¹
- Ka [7]: 21000 M⁻¹
- Ka [13]: < 10000 M⁻¹
- Ka [14]: < 10000 M⁻¹
- Ka [15]: < 10000 M⁻¹

Substance: hIgG3 (FITC-isotype switch variant) (antibody)
- Ka [6]: 120000 M⁻¹
- Ka [7]: 240000 M⁻¹
- Ka [16]: 70000 M⁻¹
- Ka [8]: 180000 M⁻¹
- Ka [9]: 1.2e+06 M⁻¹
- Ka [10]: 83000 M⁻¹
- Ka [17]: < 10000 M⁻¹

Substance: hIgG4 (FITC-isotype switch variant) (antibody)
- fold higher affinity than to FcγRIIIA and FcγRIIA [18]: > 4.8 fold
- Ka [16]: 48000 M⁻¹
- Ka [9]: 72000 M⁻¹
- Ka [19]: < 10000 M⁻¹
- Ka [20]: < 10000 M⁻¹
- Ka [14]: < 10000 M⁻¹
- Ka [15]: < 10000 M⁻¹
- Ka [17]: < 10000 M⁻¹

Substance: mIgG1 (FITC-isotype switch variant) (antibody)
- fold higher affinity than to FcγRIII [21]: 10 fold
- A/I (ratio of KA for the activating receptor FcγRIII to KA for the inhibitory FcγRIIB) [22]: 0.1
- Ka [6]: 40000 M⁻¹
- Ka [7]: 250000 M⁻¹
- Ka [16]: 100000 M⁻¹
- Ka [10]: 3.3e+06 M⁻¹
- Ka [11]: 310000 M⁻¹
- Ka [13]: < 10000 M⁻¹

Substance: mIgG2a (FITC-isotype switch variant) (antibody)
- Ka [6]: 170000 M⁻¹
- Ka [7]: 320000 M⁻¹
- Ka [16]: 160000 M⁻¹
- Ka [9]: 1.8e+08 M⁻¹
- Ka [10]: 420000 M⁻¹
- Ka [11]: 680000 M⁻¹
- Ka [12]: 2.9e+07 M⁻¹

Substance: mIgG2b (FITC-isotype switch variant) (antibody)
- fold higher affinity than to FcγRIIB [23]: 10 fold
- A/I (ratio of KA for the activating receptor FcγRIV to KA for the inhibitory FcγRIIB) [24]: 7
- Ka [6]: 120000 M⁻¹
- Ka [7]: 91000 M⁻¹
- Ka [16]: 120000 M⁻¹
- Ka [8]: 10000 M⁻¹
- Ka [10]: 2.2e+06 M⁻¹
- Ka [11]: 640000 M⁻¹
- Ka [12]: 1.7e+07 M⁻¹

Substance: mIgG3 (FITC-isotype switch variant) (antibody)
- Ka [19]: < 10000 M⁻¹
- Ka [20]: < 10000 M⁻¹
- Ka [13]: < 10000 M⁻¹
